{
  "source": "paper PMC2115308",
  "key": {"[1]": {"target": "Arg-Gly-Asp-directed receptors on LiBr melanoma cells (human (endogenous in LiBr))", "assay": "radioligand binding"}, "[2]": {"target": "Arg-Gly-Asp-directed receptors on LiBr melanoma cells (human (endogenous in LiBr))", "assay": "radioligand binding", "remark": "listed apart in the source"}},
  "note": "Where “and” joins values, the source holds several entries; their conditions need not be identical. Equal entries are not always repeated. Where two headings read alike, the source gives them in different places. No end group written: not given here. *: point of attachment. 125I = [125I]*",
  "data": [
    {"binder": "KY(125I)GRGDSP", "note": "[iodinated synthetic peptide KYGRGDSP]", "values": [
      {"measurement": "specific cpm", "setting": "[1]", "result": "637 cpm and 494 cpm"},
      {"measurement": "specific cpm", "setting": "[2]", "result": 2660, "unit": "cpm"}
    ]}
  ]
}
